According to publication PMC7705038:

Molecular target: McbR (Escherichia coli (avian pathogenic, strain APECX40)) (UniProt P76114)
Experiment: EMSA

McbR (Escherichia coli (avian pathogenic, strain APECX40)), sequence (P76114 whole entry): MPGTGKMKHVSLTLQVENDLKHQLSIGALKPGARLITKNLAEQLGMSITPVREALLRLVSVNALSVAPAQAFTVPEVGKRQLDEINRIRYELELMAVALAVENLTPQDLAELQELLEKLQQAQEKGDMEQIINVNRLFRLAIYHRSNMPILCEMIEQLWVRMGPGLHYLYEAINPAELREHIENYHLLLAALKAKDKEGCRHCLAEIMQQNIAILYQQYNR

ATGTTCGTGAATTTACAGGCGTTAGATTTACATACATTTGTGAATGTATGTACCATAGCACGACGATAATATAAACGCAGCAATGGGTTTATTAACTTTTGACCATTGACCAATTTGAAATCGGACACTCGAGGTTTACAT (double strand) [p-acrAB]
binding: binds
